From the nanobody polyreactivity screen of Harvey et al. (2022)

Test: yeast display, Sf9 membrane polyspecificity reagent, FACS + sequencing; frameworks hold sequencing errors
Procedure, shortened: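 Polyreactivity labels are assigned by the sorting gate from which each nanobody was recovered. The gates were low and high (top ~1%), set on anti-HA fluorescence for expression and streptavidin fluorescence for reagent binding. Before sorting, galactose-induced (36–48 hours) yeast display cells were stained for 1 hour at 4 °C with 10% biotinylated, detergent-solubilized Sf9 membrane reagent.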

| Sequence | polyreactivity (PSR sort gate) |
| --- | --- |
| QVQLVESGGGLVQAGGSLRLSCAASGSIFYLYAMGWYRQAPGKERELVATMSSSGGSTYYADSVKGRFTISRDNAKNTVYLQMISLKPEDTAVYYCNADYIYYGTTYEYWGQGTQVTVSS | low polyreactivity |
| QVQLVESGGGLVQAGGSLRLSCAASGSIFYLYAMGWYRQEPGKERELVAAINFRGGSTYADSVKGRFTISRDNAKNTVYLQMNSLKPEDTAVYYCAAKAAYRMNYWGQGTQVTVSS | high polyreactivity |
| QVQLVESGGGLVQAGGSLRLSCAASGSIFYLYDKGWYRQAPGKERELVADITWSGGSTYYADSVKGRFTISRDNAKNTVYLQMYSLKPEDTAVYYCAAAYGPFYYELYDYWGLGTQVTVSS | low polyreactivity |
| QVQLVESGGGLVQAGGSLRLSCAASGSIFYLYTMGWNRQAPGKERELVAAITAISGSTYYADSVKGRFTISRDNAKNTVYLQINSLKPEDTAVYYCAAKYYRHRWQLYNYWGQGTQVTVSS | high polyreactivity |
| QVQLVESGGGLVQAGGSLRLSCAASGSIFYPNAMGWYRQAPGKERELVAANSIGGGRTYYADSVKGRFTISRDNAKNTVYLQMNSLKPEDTAVYYCAASFYSYTSTWAYRFYYWGQGTQVTVSS | high polyreactivity |
| QVQLVESGGGLVQAGGSLRLSCAASGSIFYPNVMGWYRQAPGKERELVAAIRTSGGSTYYADSVKGRFTISRDNAKNTVYLQMNSLKPEDTAVYYCAADYIYVKYEYWGQGTQVTVSS | high polyreactivity |
| QVQLVESGGGLVQAGGSLRLSCAASGSIFYPYAMGRYRQAPGKERELVASIRSRRGTTFYADSVKGRFTISRDNAKNTVYLQMNSLKPEDTAVYYCAVDNWSSSYYWWVDKLGGSDYWGQGTQVTVSS | low polyreactivity |
| QVQLVESGGGLVQAGGSLRLSCAASGSIFYPYAMGWSSKAPRKERELVARISSAGGTYYADSVKGRFTISRDNAKNTVYLQMNSLKPEDTAVYYCAAQARYRYYYWGQGTQVTVSS | high polyreactivity |
| QVQLVESGGGLVQAGGSLRLSCAASGSIFYPYAMGWYRQAPGKERELVAAISSGGTTYYADSVKGRFTISRDNAKNTVYLQMNSLKPEDTAVYYCGAGFYLRAVWMDYWGQGTQVTVSS | high polyreactivity |
| QVQLVESGGGLVQAGGSLRLSCAASGSIFYPYAMGWYRQAPGKERELVAAISSSGGSTYYADSVKGRFTISRDTAKNTVYLQMNSLKPEDTAVYYCAARGKKHAYDYWGQGTQVTVSS | low polyreactivity |
| QVQLVESGGGLVQAGGSLRLSCAASGSIFYPYAMGWYRQAPGKERELVASISSGGSTYYADSVKGRFTISRDNGKNTVYLQMISLKTDDTAVYYCIAVFSTFTGEYYWGKGTQVTVSS | high polyreactivity |
| QVQLVESGGGLVQAGGSLRLSCAASGSIFYPYAMGWYSQAPGKERELVAGISRSGASTYYADSVKGRFTISRDNAKNTVYLQMNSLKPEDTAVYYCAADDWTRNYWGQGTQVTVSS | low polyreactivity |
| QVQLVESGGGLVQAGGSLRLSCAASGSIFYPYVMGWYRQAPGKERELVATITWSGDDTNYADSVKGRFTISRDNAKNTVYLQMNSLKPEDTAVYYCAVGYGDYLYYDYDYWGQGTQVTVSS | low polyreactivity |
| QVQLVESGGGLVQAGGSLRLSCAASGSIFYQNAMGWYIQAPGKERELVAAITSDGSTYYADSVKGRFTISRDNAKNTVYLQMNSLKPEDTAVYYCAAEYYGHRYDYWGQGTQVTVSS | low polyreactivity |
| QVQLVESGGGLVQAGGSLRLSCAASGSIFYQNAMGWYRQAPGKEREFVAAITWIGGSTYYADSVKGRFTISRDNAKNSVYLQMNILKPEDTAVYYCAADSVDNIYYGFDYWGQGTQVTVSS | high polyreactivity |
| QVQLVESGGGLVQAGGSLRLSCAASGSIFYQNAMGWYRQAPGKERELVAAISSAGSTYYADSVKGRFTISRDNAKNTVYLQMNSLKPEDTAVYYCARRSSGELGYHIYDYWGQGTQVTVSS | low polyreactivity |
| QVQLVESGGGLVQAGGSLRLSCAASGSIFYQNAMGWYRQAPGKERELVAAITWRSGSTYYADSVKGRFTISRDNAKNTVDLQMNSLKPEDTAVYYCAADLLISPEFYYWGQGTQVTVSS | high polyreactivity |
| QVQLVESGGGLVQAGGSLRLSCAASGSIFYQNMGWYRQAPRKERELVATINRGSSTHYADSVKGRFTISRDNAKNTVYLQMNSLKPEDTAVYYCAKRSSRYRLYYWGQGTQVTVSS | high polyreactivity |
| QVQLVESGGGLVQAGGSLRLSCAASGSIFYQYAMGWYRQAPGKERELVARIRGSTGTTYYADSVKGRFTISRDNAKNTVYLQMNSLKPEDTAVYYCNAARYQGRSRFDYWGQGTQVTVSS | high polyreactivity |
| QVQLVESGGGLVQAGGSLRLSCAASGSIFYRNAMGWSRQAPGKEREFVAAITLRGGSTYYADSVKGRFTISRDYAKNTVYLQMNSLKPEDTAVYYCNAGVGLTYVHDGDYWGQGTQVTVSS | low polyreactivity |
| QVQLVESGGGLVQAGGSLRLSCAASGSIFYRNAMGWYRQAPGKEREFVAAITLRGGSTYYADSVKGRFTISRDKAKNTVYLQMNSLKPEDTAVYYCNAGVGLTYVHDGDYWGQGTQVTVSS | low polyreactivity |
| QVQLVESGGGLVQAGGSLRLSCAASGSIFYRNAMGWYRQAPGKERELVAAISSDGSTNYADSVKGRFTISRDNAKNTVYLQMNSLKPEDTAVSYCAAPWTQILDYWGQGTQVTVSS | low polyreactivity |

| Sequence | polyreactivity (PSR sort gate) |
| --- | --- |
| QVQLVESGGGLVQAGGSLRLSCAASGSIFYRNAMGWYRQAPGKERELVAAITWSGVNTYYADSVKGRFTISRDNAKNTVYLQMNSLKPEDTAVYYCAVPSRYWLNRGFDYWGQGSQVTVSS | low polyreactivity |
| QVQLVESGGGLVQAGGSLRLSCAASGSIFYRNTMGWYRQAPGKERELVAAITRGTRTYYADSGKGRFTISRDNAKNTVYLQMNSLKPEDTAVYYCNARFVGRTGGSFDYWGQGTQVTVSS | high polyreactivity |
| QVQLVESGGGLVQAGGSLRLSCAASGSIFYRNTMGWYRQAPGKERELVAAITTSGGSTYYADSVKGRFTISRDNAKNTVYLQMNSLKPEDTAVYYCAARTWERWYRYYYWGQGTQVTVSS | high polyreactivity |
| QVQLVESGGGLVQAGGSLRLSCAASGSIFYRNTMGWYRQAPGKERELVASINTGTGTYYADSVKGRFTISRDNAKNTVYLQMNSLKPEDTAVYYCNKVSYVKYGYWGQGTQVTVSS | high polyreactivity |
| QVQLVESGGGLVQAGGSLRLSCAASGSIFYRNVMGWYRQAPGKERELVAAISSGTSTYYADSVKGRFTISRDNAKHTVYFPMNSLKPEDPAVYDCAADGLHYYGQRWYYGVDYWVQGTQVTVSS | low polyreactivity |
| QVQLVESGGGLVQAGGSLRLSCAASGSIFYRNVMGWYRQAPGKERELVAAITWSGGSTYYADSVKGRFTISRDNAKNTVYLQMNSLKPEDTAVYYCAAASKGTYRGKVSGYYYWGQGTQVTVSS | high polyreactivity |
| QVQLVESGGGLVQAGGSLRLSCAASGSIFYRYAMGWYRPAPGKERELVAAISSTGSTYYADSVKGRFTISRDNAKNTVYLQMNSLKPEDTAVYYCAARQGYRSYRRYDYWGQGTQVTVSS | high polyreactivity |
| QVQLVESGGGLVQAGGSLRLSCAASGSIFYRYAMGWYRQAPGKERELVAAISSGGSTYYADSVKGRFTISRDNAKNTVYLQMNSLKPEDTAVYYCAAKHYYYSPYVRYDPPPGYYWGQGTQVTVSS | high polyreactivity |
| QVQLVESGGGLVQAGGSLRLSCAASGSIFYRYAMGWYRQAPGKERELVAAISWGGGRTYYADSVKGRFTISRDNAKNTVYLLMKSLKPEDTAVYYCNAVQSYYTVHRLDYWGQGTQVTVSS | high polyreactivity |
| QVQLVESGGGLVQAGGSLRLSCAASGSIFYRYAMGWYRQAPGKERELVAAISYNGGRTYYADSVKGRFTISRDNAKNTVYLQMNSLKPEDTAVYYCNAAGRDDAYDYWGQGTQVTVSS | high polyreactivity |
| QVQLVESGGGLVQAGGSLRLSCAASGSIFYRYAMGWYRQAPGKERELVATISLSGGSTYADSVKGRFTISRDNAKNTVYLQMNSLKPEDTAVYYCAAGGQYYIIRYDYWGQGTQVTVSS | low polyreactivity |
| QVQLVESGGGLVQAGGSLRLSCAASGSIFYRYDMGWYRQAPGKERELVADISWSSGRTYYADSVKGRFTISRDNAKNTVYLQMNSLKPEDTAVYYCATDDFWNVKFYAYYPEFDYWGQGSQVTVSS | low polyreactivity |
| QVQLVESGGGLVQAGGSLRLSCAASGSIFYRYTMGWYRQAPGKERELVAGITFGAGTYYADSVKGRFTISRDNAKNTVYLQMNSLKPEDTAVYYCNAKHLPRHRDYWGQGTQVTVSS | low polyreactivity |
| QVQLVESGGGLVQAGGSLRLSCAASGSIFYSNAMGWYRQAPGKERELVAAISGSGGTTYYADSVKGRFTISRDNAKNTVYLQMNSLKPEETAVYYCAAKPSVRVRLSDYWGQGTQVTVSS | high polyreactivity |
| QVQLVESGGGLVQAGGSLRLSCAASGSIFYSNTMGWYRQAPGKERELVAAISRGGSTYYADSVKGRFTISRENAKNTVYLQMNSLKPEDTAVYYCAARYRWAPAYDYWGQGTQVTVSS | high polyreactivity |
| QVQLVESGGGLVQAGGSLRLSCAASGSIFYSNVMGWYRQAPGKERELVAAIRYSGVGTYYADSVKGRFTISRDNAKNTVYLQMNSLKPEDTAVYYCNAVTKVGYLRRRDYWGQGTQVTVSS | low polyreactivity |
| QVQLVESGGGLVQAGGSLRLSCAASGSIFYSYAMGWYRQAPGTERELVAAISWDASTYYADSVKGRFTISRDNAKNTVYLQMNSLKPEDTAVYYCNADIPYYFVYDAYDYWGQGTQVTVSS | low polyreactivity |
| QVQLVESGGGLVQAGGSLRLSCAASGSIFYSYTMGWYRQAPGKEMELVAAINSGGSTYYADSVKGRFTISRDNAKNTVYLQMNSLKREDTAVYYCAARRTTSSGGYYYWGQGTQVTVSS | high polyreactivity |
| QVQLVESGGGLVQAGGSLRLSCAASGSIFYTNAKGWYRPAPGKERELVAAISYGGTTTYADSVKGRFTISRDNAKNTVYLQMNSLIPEDTAVYYCNADWLYYGYWGYGHIWYDFWGQGTQVTVSS | low polyreactivity |
| QVQLVESGGGLVQAGGSLRLSCAASGSIFYTNALGWSRQARGKERELVAAMSISGSTYYADSVKGRFTISRDNAKNTVYLQMNSLKPEDTAVYYCAAGPGYVRYPRSGVWYVTLYDYWGQGTQVTVSS | high polyreactivity |
| QVQLVESGGGLVQAGGSLRLSCAASGSIFYTNAMGWYRQAPGKERELVAAIRKSGGSTYYADSVKGRFTISRDNAKNTVYLQMNSLKPEDTAVYYCNKLYRVPQDLHDYWGQGTQVTVSS | high polyreactivity |
